Source: IntAct's records for PubMed 20923837

Experiments:
[1] = molecular target: tbcd5_human TBC1D5 (UniProt Q92609)
[2] = molecular target: vps35_mouse Vps35 (UniProt Q9EQH3)

Substance: Vacuolar protein sorting-associated protein 29 (Mus musculus) (from UniProt Q9QZ88) L152E
- effect of a mutation on the interaction [1]: disrupting interaction strength
- effect of a mutation on the interaction [2]: with no effect
